Test results taken from publication PMC7278562, “A high‐affinity, bivalent PDZ domain inhibitor complexes PICK1 to alleviate neuropathic pain” (EMBO Molecular Medicine, 2020).
Ends that are not written are not given here. Peptide text beside a SMILES is read from it. * marks the point of attachment. 3‑phenylpropyl = c1ccc(CCC*)cc1; Cyclohexylmethyl = C1CCC(C*)CC1; Bn = c1ccc(C*)cc1

Tests used:
PICK1 [1] = target: T1, PICK1 (Rattus norvegicus, UniProt Q9EP80); conditions: best-known binder of the PICK1 PDZ domain; ref Madsen et al, 2005; cited from earlier work
T1 construct: GST (inferred from pET41 and Glutathione-Sepharose capture) (cleaved yes); made in house; host or cells: Escherichia coli BL21-DE3-pLysS
Source text: To this end, we took advantage of a fluorescence polarization (FP) competition assay using a fluorescent tracer peptide corresponding to the C‐terminal 11 residues of the DAT (OrG‐C11) (Fig EV1A).

[2] = system: mechanical allodynia in SNI mice; experiment: Spared nerve injury (SNI) model, von Frey paw withdrawal threshold; type: in vivo
[3] = 20 μM i.t.; for presence in spinal cord after i.t. injection: naïve mice, 1 h after injection, fluorescence
Description: All spinal cords were isolated by hydraulic extrusion and post‐fixed in PFA 4% for 8 h. Spinal cords were subsequently cryoprotected in 30% sucrose, embedded in Tissue‐Tek® OCT, and sliced at 20 μm thickness by Cryostat Leica CM3050 S.
Epifluorescence microscopy was performed using a Zeiss axioscan.Z1, with a plan‐apochromat 10×/0.45 objective (Carl Zeiss). […] All channels were imaged covering a total of around 6 μm of the 20‐μm‐thick spinal cord slices.

hippocampal neurons = experiment: Membrane permeability in dissociated hippocampal neurons (confocal, DiO membrane dye); conditions: 21 DIV neurons, 1 h, 37°C, 5 μM TMR-labeled peptide (legend: TMR-C5 20 μM), confocal fluorescence
PICK1 [4] = target: T1, PICK1; experiment: FP saturation binding; conditions: Appendix Fig S2, n = 3
Description: Protein expression was induced with 1 mM IPTG and grown overnight at 20°C. […] 1 l culture at pH 7.4. Suspended pellet was frozen at −80°C. The bacterial suspension was thawed and cleared by centrifugation (F20 rotor, 36,000 × g for 30 min at 4°C). The supernatant was collected and incubated with Glutathione‐Sepharose 4B beads (GE Healthcare) for 2 h at 4°C under gentle rotation. […] Washed beads were transferred to a PD10 gravity column and were washed additionally three times. Bead solution was incubated with thrombin overnight at 4°C under gentle rotation.
The data were plotted using GraphPad Prism 8.3 and fitted to either a sigmoidal dose response for saturation experiments or One site competition for competition experiments. Kis were automatically calculated using the Cheng–Prusoff equation.

Plasma stability = type: in vitro ADME; conditions: human plasma (3H biomedical) with 2% DMSO, 50 μM peptide, 37°C, GnHCl/TCA-acetone work-up, C8 RP-HPLC (UPLC), normalized to T = 0, mean, n ≥ 3, read-out: peptide remaining after incubation with human plasma
Description: The peptides were dissolved to a final concentration of 50 μM in human plasma (3H biomedical, Uppsala, Sweden) containing 2% DMSO and incubated at 37°C. Aliquots (45 μl) were added directly to 26 mg guanidine hydrochloride (GnHCl), vortexed, and incubated for 2 min. 90 μl of 10% trichloroacetic acid (TCA) in acetone was then added, and the suspension was incubated at 5°C for 24 h.
The suspension was centrifuged at 18,000 g for 5 min. The supernatants were quantified by analytical C8 RP‐HPLC and normalized to the compound concentration at T = 0. Ligand recovery was > 82%.

[5] = target: PICK1 (protein interacting with C kinase 1), purified recombinant rat (rat) (UniProt Q9EP80); experiment: fluorescence polarisation; competition (Ki with SEM interval); tracer and conditions not stated
[6] = target: PICK1 (protein interacting with C kinase) (rat) (UniProt Q9EP80); experiment: fluorescence polarisation; competition; fixed PICK1 and a fluorescent tracer (not named for this series) against increasing unlabeled peptide; 20 min on ice; Ki by Cheng-Prusoff
[7] = target: Org-GluA2 C11, Oregon Green labelled C-terminal 11 residues of GluA2; experiment: fluorescence polarisation; saturation; fluorescent peptide fixed at 20 nM, increasing PICK1; 0.01% Triton X-100 (PICK1 a dimer); KD from a log dose-response fit
[8] = target: OrG-C11, Oregon Green labelled C-terminal 11 residues of the dopamine transporter; experiment: as above
[9] = target: DAT C13 C-terminal 13 residues (Homo sapiens) (UniProt Q01959); conditions: cited from earlier work
[10] = target: PICK1 (protein interacting with C kinase) (rat) (UniProt Q9EP80); experiment: fluorescence polarisation
[11] = target: PICK1 (protein interacting with C kinase) (rat) (UniProt Q9EP80); experiment: SEC; analytical SEC of purified PICK1 (40 uM in the titration) alone or incubated with peptide; absorbance at 280 nm and, for the TMR peptide, 544/546 nm
[12] = target: PICK1 (protein interacting with C kinase) (rat) (UniProt Q9EP80); experiment: fluorescence polarisation; remark: listed apart in the source

Molecule: CC(C)C[C@H](NC(=O)[C@H](Cc1c[nH]c2ccccc12)NC(=O)[C@H](Cc1c[nH]cn1)NC(=O)[C@H](CCCNC(=N)N)NC(=O)[C@H](CC(C)C)NC(=O)[C@@H](NC(=O)[C@H](Cc1ccccc1)NC(=O)[C@H](CCC(N)=O)NC(=O)[C@H](CCCNC(=N)N)NC(=O)[C@@H](NC(=O)[C@@H](N)CCC(=O)O)C(C)C)[C@@H](C)O)C(=O)N[C@@H](CCCCN)C(=O)N[C@H](C(=O)O)C(C)C [DAT C13] (H-EVRQFTLRHWLKV-OH)
- Ki (PICK1 [1]): 1000 nM

Molecule: CCOC(=O)NC(=O)/C(C#N)=C/c1ccc(Cl)c(Cl)c1 [FSC231]
- effect on PWT / ipsilateral paw hypersensitivity ([2]; i.t. 20 μM, initiation stage (2 days after injury), n = 8 mice/group): did not significantly change PWT

Molecule: CC(C)C[C@H](NC(=O)[C@H](Cc1c[nH]c2ccccc12)NC(=O)[C@H](Cc1c[nH]cn1)NC(=O)CCOCCOCCN(CCOCCOCCC(=O)N[C@@H](Cc1c[nH]cn1)C(=O)N[C@@H](Cc1c[nH]c2ccccc12)C(=O)N[C@@H](CC(C)C)C(=O)N[C@@H](CCCCN)C(=O)N[C@H](C(=O)O)C(C)C)C(=O)[C@H](CCCNC(=N)N)NC(=O)[C@H](CCCNC(=N)N)NC(=O)[C@H](CCCNC(=N)N)NC(=O)[C@H](CCC(N)=O)NC(=O)[C@H](CCCNC(=N)N)NC(=O)[C@H](CCCNC(=N)N)NC(=O)[C@H](CCCCN)NC(=O)[C@H](CCCCN)NC(=O)[C@H](CCCNC(=N)N)NC(=O)CNC(=O)[C@H](Cc1ccc(O)cc1)NC(=O)c1ccc2c(c1)C(=O)OC21c2ccc(N(C)C)cc2Oc2cc(N(C)C)ccc21)C(=O)N[C@@H](CCCCN)C(=O)N[C@H](C(=O)O)C(C)C [TMR-Tat-P4-(C5)2]
- time of maximal accumulation in cells ([3]; SNI mice, time points 0, 30, 60, 120 min): 60 min
- cell type of peptide signal in gray matter ([3]; SNI mice, NeuN and GFAP staining): exclusively confined toward neurons
- presence in spinal cord after i.t. injection [3]: clearly visible in both the ventral and dorsal parts of the spinal cord
- membrane penetration / labeling of neurons (hippocampal neurons): labeled neurons
- affinity from saturation binding curves (PICK1 [4]): low nanomolar affinity

Molecule: CC(C)C[C@H](NC(=O)[C@H](Cc1c[nH]c2ccccc12)NC(=O)[C@H](Cc1cnc[nH]1)NC(=O)[C@H](CCCNC(=N)N)NC(=O)[C@H](CCCNC(=N)N)NC(=O)[C@H](CCCNC(=N)N)NC(=O)[C@H](CCC(N)=O)NC(=O)[C@H](CCCNC(=N)N)NC(=O)[C@H](CCCNC(=N)N)NC(=O)[C@H](CCCCN)NC(=O)[C@H](CCCCN)NC(=O)[C@H](CCCNC(=N)N)NC(=O)CNC(=O)[C@@H](N)Cc1ccc(O)cc1)C(=O)N[C@@H](CCCCN)C(=O)N[C@H](C(=O)O)C(C)C [Tat-C5]
- remaining at 24 h, 50 μM (Plasma stability): ~5%

Molecule: NCC1(CC(=O)O)CCCCC1 [gabapentin]
- efficacy 14 days after nerve injury ([2]; i.p. 30 mg/kg, chronic phase, n = 4 per gender): comparable efficacy
- ipsilateral paw threshold ([2]; i.p. 30 mg/kg, initiation stage (2 days after injury), at 1, 2, 3 h, n = 4 mice): full recovery

Molecule: DAT C3 peptide, N-acetylated, R = COCH3
- Ki [5]: 3.8 µM

Molecule: DAT C3 peptide, N-alkylated, R = CH3
- Ki [5]: 9.38 µM

Molecule: DAT C3 peptide, N-alkylated, R drawn (cyclohexylmethyl)
- Ki [5]: 6.82 µM

Molecule: DAT C3 peptide, no modification
- Ki [5]: 4.1 µM

Molecule: P4‐(C5)2 (peptide)
- Ki [6]: 98 nM

Molecule: P28‐(C5)2 (peptide)
- Ki [6]: 593 nM

Molecule: PEG0‐(HWLKV)2 (peptide)
- fold increase in affinity over C5 [6]: > 10 fold

Molecule: PEG8‐(HWLKV)2 (peptide)
- fold increase in affinity over C5 [6]: > 10 fold

Molecule: PEG12‐(HWLKV)2 (peptide)
- fold increase in affinity over C5 [6]: > 10 fold

Molecule: PICK1 (protein interacting with C kinase 1), purified recombinant rat (from UniProt Q9EP80 1-416) (natural protein)
- Kd [7]: 1530 nM
- Kd [8]: 440 nM

Molecule: PICK1 PDZ (from UniProt Q9NRD5)
- Ki [9]: 1000 nM

Molecule: TMR‐Ahx‐YGRKKRRQRRR‐HWLKV [TMR-Tat-C5]
- presence in spinal cord after i.t. injection [3]: clearly visible in both the ventral and dorsal parts of the spinal cord

Molecule: Tat‐P4‐(C5)2 (peptide)
- Ki [10]: 6.2 nM
- fold affinity gain over C5 [10]: > 300 fold
- stoichiometry N (Tat‐P4‐(C5)2 per PICK1) [11]: 0.25
- Ki [12]: 1.7 nM

B1: DAT C4 peptide, N-alkylated, R drawn (2-cyclohexylethyl) (peptide)
peptide: {2‑cyclohexylethyl}-WLKV
- Ki [5]: 31.8 µM

B2: DAT C4 peptide, N-alkylated, R drawn (2-naphthylethyl) (peptide)
peptide: {2‑(naphthyl)ethyl}-WLKV
modifications: not fully specified
- Ki [5]: 48 µM

B3: DAT C4 peptide, N-alkylated, R drawn (3-phenylpropyl) (peptide)
peptide: {3‑phenylpropyl}-WLKV
- Ki [5]: 38.6 µM

B4: DAT C4 peptide, N-alkylated, R = CH2CH3 (peptide)
peptide: Et-WLKV
- Ki [5]: 30 µM

B5: DAT C4 peptide, N-alkylated, R drawn (2-phenylethyl) (peptide)
peptide: {2‑phenylethyl}-WLKV
- Ki [5]: 26.2 µM

B6: DAT C4 peptide, N-acetylated, R = COCH3 (peptide)
peptide: Ac-WLKV
- Ki [5]: 3.49 µM

B7: DAT C4 peptide, N-alkylated, R drawn (benzyl) (peptide)
peptide: Bn-WLKV
- Ki [5]: 24.5 µM

B8: DAT C4 peptide, N-alkylated, R drawn (cyclohexylmethyl) (peptide)
peptide: Cyclohexylmethyl-WLKV
- Ki [5]: 15.1 µM

B9: DAT C4 peptide, N-alkylated, R = (CH2)2CH3 (peptide)
peptide: {n‑propyl}-WLKV
- Ki [5]: 46.6 µM

B10: DAT C4 peptide, N-alkylated, R = (CH2)3CH3 (peptide)
peptide: {n‑butyl}-WLKV
- Ki [5]: 45.3 µM

B11: DAT C4 peptide, N-alkylated, R = CH3 (peptide)
peptide: methyl-WLKV
- Ki [5]: 18.8 µM

B12: DAT C4 peptide, no modification (peptide)
peptide: WLKV
- Ki [5]: 5.69 µM
